Source: article PMC4538835

Legend:
Test in all cases: fluorescence polarisation
[1] = molecular target: MED25 ACID/PTOV domain (residues 391 to 548) (human) (UniProt Q71SY5)
[2] = molecular target: TAMRA-labelled ERM_(38–68) (human) (UniProt P41161)
[3] = molecular target: TAMRA-labelled ERM_(38–68) W57L (human) (UniProt P41161)
[4] = molecular target: TAMRA-labelled ERM_(38–68) F47L/W57L (human) (UniProt P41161)

Row | IC50 [1] [nM] | Kd [2] [nM] | Kd [3] [µM] | Kd [4] [µM] | Substance
1 | 1500 | – | – | – | ERM_(38–68) peptide (unlabelled by dye) (from UniProt P41161 38-68)
2 | – | 600 | 4.8 | 8.3 | MED25 ACID/PTOV domain (residues 391 to 548) (from UniProt Q71SY5 391-548) (domain or fragment)
